Source: publication PMC12550018, “High-resolution native electrophoresis in-gel activity assay reveals biological insights of medium-chain fatty acyl-CoA dehydrogenase deficiency” (Scientific Reports, 2025)

Assays:
[1] = biological target: the molecule itself; assay: native gel or EMSA; high-resolution clear native PAGE (hrCN-PAGE) of purified recombinant protein, 4-16% or 4-20% gradient gels, pH 7.0, cathode buffer with 0.05% sodium deoxycholate and 0.01% n-dodecyl-beta-D-maltoside; Coomassie, FAD fluorescence and acyl-CoA:NBT in-gel activity staining
[2] = biological target: the molecule itself; assay: SEC; Superdex 200 5/150 GL, 2 mg/ml protein, 0.1 ml PBS/min, 5 °C, absorbance at 280 nm; mass by calibration with protein standards

Protein	binding result [1]	stoichiometry N [2]
Glutaryl-CoA dehydrogenase (GCDH), human recombinant wild type (enzyme, UniProt Q92947 45-438, looked up, Glutaryl-CoA dehydrogenase, human, wild type; source: purified by a procedure similar to that for MCAD (E. coli, MBPTrap, TEV digestion, SEC)) RPEFDWQDPLVLEEQLTTDEILIRDTFRTYCQERLMPRILLANRNEVFHREIISEMGELGVLGPTIKGYGCAGVSSVAYGLLARELERVDSGYRSAMSVQSSLVMHPIYAYGSEEQRQKYLPQLAKGELLGCFGLTEPNSGSDPSSMETRAHYNSSNKSYTLNGTKTWITNSPMADLFVVWARCEDGCIRGFLLEKGMRGLSAPRIQGKFSLRASATGMIIMDGVEVPEENVLPGASSLGGPFGCLNNARYGIAWGVLGASEFCLHTARQYALDRMQFGVPLARNQLIQKKLADMLTEITLGLHACLQLGRLKDQDKAAPEMVSLLKRNNCGKALDIARQARDMLGGNGISDEYHVIRHAMNLEAVNTYEGTHDIHALILGRAITGIQAFTASK	binds	
Medium-chain specific acyl-CoA dehydrogenase (MCAD), human recombinant wild type (enzyme, UniProt P11310-1 26-421, looked up, Medium-chain specific acyl-CoA dehydrogenase (MCAD), human, encoded by ACADM; One FAD per monomer; also called MCAD WT; human recombinant MCAD; not shown: MBP, N-terminal, cleaved) KANRQREPGLGFSFEFTEQQKEFQATARKFAREEIIPVAAEYDKTGEYPVPLIRRAWELGLMNTHIPENCGGLGLGTFDACLISEELAYGCTGVQTAIEGNSLGQMPIIIAGNDQQKKKYLGRMTEEPLMCAYCVTEPGAGSDVAGIKTKAEKKGDEYIINGQKMWITNGGKANWYFLLARSDPDPKAPANKAFTGFIVEADTPGIQIGRKELNMGQRCSDTRGIVFEDVKVPKENVLIGDGAGFKVAMGAFDKTRPVVAAGAVGLAQRALDEATKYALERKTFGKLLVEHQAISFMLAEMAMKVELARMSYQRAAWEVDSGRRNTYYASIAKAFAGDIANQLATDAVQILGGNGFNTEYPVEKLMRDAKIYQIYEGTSQIQRLIVAREHIDKYKN		4
MCAD variant p.R206C, human recombinant (enzyme, UniProt P11310-1 26-421, looked up, MCAD, human, encoded by ACADM, clinically relevant variant p.R206C made by site-directed mutagenesis in pMALc2X; masses fit the mature protein (26-421); The residue number counts on the precursor; Native MS: only three FAD per tetramer; also called MCAD R206C; not shown: MBP, N-terminal, cleaved) KANRQREPGLGFSFEFTEQQKEFQATARKFAREEIIPVAAEYDKTGEYPVPLIRRAWELGLMNTHIPENCGGLGLGTFDACLISEELAYGCTGVQTAIEGNSLGQMPIIIAGNDQQKKKYLGRMTEEPLMCAYCVTEPGAGSDVAGIKTKAEKKGDEYIINGQKMWITNGGKANWYFLLACSDPDPKAPANKAFTGFIVEADTPGIQIGRKELNMGQRCSDTRGIVFEDVKVPKENVLIGDGAGFKVAMGAFDKTRPVVAAGAVGLAQRALDEATKYALERKTFGKLLVEHQAISFMLAEMAMKVELARMSYQRAAWEVDSGRRNTYYASIAKAFAGDIANQLATDAVQILGGNGFNTEYPVEKLMRDAKIYQIYEGTSQIQRLIVAREHIDKYKN		4
MCAD variant p.Y67H, human recombinant (enzyme, UniProt P11310-1 26-421, looked up, MCAD, human, encoded by ACADM, clinically relevant variant p.Y67H made by site-directed mutagenesis in pMALc2X; masses fit the mature protein (26-421); The residue number counts on the precursor; also called MCAD Y67H; not shown: MBP, N-terminal, cleaved) KANRQREPGLGFSFEFTEQQKEFQATARKFAREEIIPVAAEHDKTGEYPVPLIRRAWELGLMNTHIPENCGGLGLGTFDACLISEELAYGCTGVQTAIEGNSLGQMPIIIAGNDQQKKKYLGRMTEEPLMCAYCVTEPGAGSDVAGIKTKAEKKGDEYIINGQKMWITNGGKANWYFLLARSDPDPKAPANKAFTGFIVEADTPGIQIGRKELNMGQRCSDTRGIVFEDVKVPKENVLIGDGAGFKVAMGAFDKTRPVVAAGAVGLAQRALDEATKYALERKTFGKLLVEHQAISFMLAEMAMKVELARMSYQRAAWEVDSGRRNTYYASIAKAFAGDIANQLATDAVQILGGNGFNTEYPVEKLMRDAKIYQIYEGTSQIQRLIVAREHIDKYKN		4
MCAD variant p.K329E, human recombinant (enzyme, UniProt P11310-1 26-421, looked up, MCAD, human, encoded by ACADM, clinically relevant variant p.K329E made by site-directed mutagenesis in pMALc2X; masses fit the mature protein (26-421); The residue number counts on the precursor; also called MCAD K329E; not shown: MBP, N-terminal, cleaved) KANRQREPGLGFSFEFTEQQKEFQATARKFAREEIIPVAAEYDKTGEYPVPLIRRAWELGLMNTHIPENCGGLGLGTFDACLISEELAYGCTGVQTAIEGNSLGQMPIIIAGNDQQKKKYLGRMTEEPLMCAYCVTEPGAGSDVAGIKTKAEKKGDEYIINGQKMWITNGGKANWYFLLARSDPDPKAPANKAFTGFIVEADTPGIQIGRKELNMGQRCSDTRGIVFEDVKVPKENVLIGDGAGFKVAMGAFDKTRPVVAAGAVGLAQRALDEATKYALERKTFGKLLVEHQAISFMLAEMAMEVELARMSYQRAAWEVDSGRRNTYYASIAKAFAGDIANQLATDAVQILGGNGFNTEYPVEKLMRDAKIYQIYEGTSQIQRLIVAREHIDKYKN		4
